Data set [1] is described as follows: Post-mortem biodistribution, RM-1 tumor model. The format is in vivo, male athymic nude mice. The conditions noted are these: male, athymic nude, mouse, in vivo, iv, 1.2 nmol, total radioactivity. As for the experimental part:
(§1) The media were provided by the MSK Media Preparation Core. […] Another aliquot was diluted with the medium so that 50 µL contained 1×10^6 cells.
(§2) The imaging and biodistribution studies were performed with male (RM-1 model) and female (4T1 model) athymic nude mice and the kidney-blocking experiments were performed with female SCID mice received from Charles River Laboratories (Stone Ridge, NY). After arrival, the mice were kept in the MSK vivarium for one week before any experimental handling was performed. The animals were allowed free access to water and food, and all animal care and experimental procedures were approved by the Institutional Animal Care and Use Committee (IACUC). For the subcutaneous allografts, a 1-to-1 ratio of Corning Matrigel Matrix and the cell solution was prepared and stored on ice for the injections. Each mouse received a subcutaneous injection of 100 µL (50 µL cell solution, viability > 90%, + 50 µL Matrigel) into the flank on the level of the right shoulder. The injections were performed under anesthesia (2% isoflurane, Baxter Healthcare, Deerfield, IL, USA).
(§3) The mice were intravenously injected (tail vein) with the radiolabeled pHLIP conjugates (1.2 nmol, 7.4 MBq/200 µCi, 100 µL, in sterile filtered PBS). The activity of the syringe prior to injection and after injection was used to determine the percent of injectate administered.
(§4) For the biodistribution studies the tumor-bearing mice were randomized before the injections. Only mice with suitable tumors (150–300 mm^3) were utilized. An exception was made for the 120-hour timepoint, for which only mice with smaller tumors (150 mm^3) were selected. The mice were grouped in cohorts of four. At the respective timepoint, the mice were euthanized (by CO2 asphyxiation, followed by cervical dislocation) and their blood was collected by cardiac puncture as a terminal procedure, followed by quick removal of the tumors. After this, the other organs/samples were collected. […] The exact activities of all samples of one mouse were determined by an Capintec® CRC-55tR dose calibrator. These decay-corrected measurements were used to determine a calibration factor and calibrate all counts to the corresponding activities. Activity concentrations were calculated as percentage injected dose per tissue weight (%ID/g wet tissue). All data was processed and visualized using Origin 8.5.

In the next data set the test system is RM-1 tumor allografts. Kind of data set: Post-mortem biodistribution, RM-1 tumor model. The format is in vivo, male athymic nude mice. The conditions noted are these: mouse, in vivo, iv, 1.2 nmol, 48 h. As for the experimental part:
as §1, §2, §3, §4

The nature of another data set: in vivo. Also on record: species or system female athymic nude mice. Particulars: female, athymic nude, mouse, iv, 1.2 nmol, total radioactivity. As for the experimental part: as §1, §2, §3, §4

Molecules are shown by their SMILES.

What is called tissue uptake is the percentage of the injected dose found per gram of tissue.

With `CC(=O)N[C@H](C)C(=O)N[C@H](CCCCNc1c(NCCCCCN(O)C(=O)CCC(=O)NCCCCCN(O)C(=O)CCC(=O)NCCCCCN(O)C(C)=O)c(=O)c1=O)C(=O)N[C@H](CC(=O)O)C(=O)N[C@H](CC(=O)O)C(=O)N[C@H](CCC(N)=O)C(=O)N[C@H](CC(N)=O)C(=O)N1CCC[C@@H]1C(=O)N[C@H](Cc1c[nH]c2ccccc12)C(=O)N[C@H](CCCNC(=N)N)C(=O)N[C@H](C)C(=O)N[C@H](Cc1ccc(O)cc1)C(=O)N[C@H](CC(C)C)C(=O)N[C@H](CC(=O)O)C(=O)N[C@H](CC(C)C)C(=O)N[C@H](CC(C)C)C(=O)N[C@H](Cc1ccccc1)C(=O)N1CCC[C@@H]1C(=O)N[C@@H](C(=O)N[C@H](CC(=O)O)C(=O)N[C@@H](C(=O)N[C@H](CC(C)C)C(=O)N[C@H](CC(C)C)C(=O)N[C@H](CC(C)C)C(=O)N[C@H](CC(=O)O)C(=O)N[C@H](CC(C)C)C(=O)N[C@H](CC(C)C)C(=O)N[C@H](Cc1c[nH]c2ccccc12)C(=O)N[C@H](C)C(=O)O)[C@H](C)O)[C@H](C)O` (89Zr complex, metal not drawn) [DFOsqa-Lys-Var3], the tissue uptake at 48 h was determined as 0.3 ± 0.03 %ID/g in data set [1] (Blood uptake); 0.06 ± 0.02 %ID/g in data set [1] (Brain uptake); 1.6 ± 0.1 %ID/g in data set [1] (Heart uptake); 82.5 ± 14.2 %ID/g in data set [1] (Kidneys uptake); 10.8 ± 2.1 %ID/g in data set [1] (Liver uptake); 2.5 ± 0.6 %ID/g in data set [1] (Lungs uptake). For the same molecule, the tissue uptake at 48 h in data set [1] (Pancreas uptake) amounted to 1.2 ± 0.1 %ID/g; in data set [1] (Skin uptake), 2.1 ± 0.07 %ID/g; in data set [1] (Spleen uptake), 6.4 ± 1.4 %ID/g; in data set [1] (Tibia uptake) it was 1.6 ± 0.1 %ID/g; in the data set “in vivo” (Blood uptake), 0.4 ± 0.01 %ID/g; in the data set “in vivo” (Brain uptake) it was 0.04 ± 0.01 %ID/g. Besides, the tissue uptake at 48 h in the data set “in vivo” (Heart uptake) was found to be 1.3 ± 0.06 %ID/g; in the data set “in vivo” (Kidneys uptake), 82.5 ± 10.9 %ID/g; in the data set “in vivo” (Liver uptake), 11.2 ± 1 %ID/g; in the data set “in vivo” (Lungs uptake), 1.4 ± 0.2 %ID/g; in the data set “in vivo” (Muscle uptake), 0.5 ± 0.04 %ID/g; in the data set “in vivo” (Pancreas uptake) it was 0.8 ± 0.1 %ID/g. The tissue uptake at 48 h in “in vivo” (Skin uptake) was 2.6 ± 0.4 %ID/g; in “in vivo” (Spleen uptake), 6.9 ± 0.6 %ID/g; in “in vivo” (Tibia uptake) it was 1.5 ± 0.2 %ID/g; in “in vivo” (Tumor uptake), 10.2 ± 1.2 %ID/g. The same molecule returned a Tumor uptake in the data set on RM-1 tumor allografts of 12.4 ± 4.7 %ID/g.

On to `CC(=O)N[C@H](C)C(=O)N[C@H](CCCCNC(=S)Nc1ccc(NC(=S)NCCCCCN(O)C(=O)CCC(=O)NCCCCCN(O)C(=O)CCC(=O)NCCCCCN(O)C(C)=O)cc1)C(=O)N[C@H](CC(=O)O)C(=O)N[C@H](CC(=O)O)C(=O)N[C@H](CCC(N)=O)C(=O)N[C@H](CC(N)=O)C(=O)N1CCC[C@@H]1C(=O)N[C@H](Cc1c[nH]c2ccccc12)C(=O)N[C@H](CCCNC(=N)N)C(=O)N[C@H](C)C(=O)N[C@H](Cc1ccc(O)cc1)C(=O)N[C@H](CC(C)C)C(=O)N[C@H](CC(=O)O)C(=O)N[C@H](CC(C)C)C(=O)N[C@H](CC(C)C)C(=O)N[C@H](Cc1ccccc1)C(=O)N1CCC[C@@H]1C(=O)N[C@@H](C(=O)N[C@H](CC(=O)O)C(=O)N[C@@H](C(=O)N[C@H](CC(C)C)C(=O)N[C@H](CC(C)C)C(=O)N[C@H](CC(C)C)C(=O)N[C@H](CC(=O)O)C(=O)N[C@H](CC(C)C)C(=O)N[C@H](CC(C)C)C(=O)N[C@H](Cc1c[nH]c2ccccc12)C(=O)N[C@H](C)C(=O)O)[C@H](C)O)[C@H](C)O` (89Zr complex, metal not drawn) [DFO-Lys-Var3], for which the tissue uptake at 48 h in data set [1] (Blood uptake) was determined as 0.5 ± 0.1 %ID/g; in data set [1] (Brain uptake), 0.06 ± 0.01 %ID/g; in data set [1] (Heart uptake), 1.3 ± 0.03 %ID/g; in data set [1] (Kidneys uptake), 27.9 ± 3.6 %ID/g; in data set [1] (Liver uptake) it was 8.7 ± 0.8 %ID/g; in data set [1] (Lungs uptake), 2 ± 0.6 %ID/g. Besides, the tissue uptake at 48 h turned out to be 0.5 ± 0.1 %ID/g in data set [1] (Muscle uptake); 1 ± 0.2 %ID/g in data set [1] (Pancreas uptake); 1.7 ± 0.3 %ID/g in data set [1] (Skin uptake); 7.2 ± 0.7 %ID/g in data set [1] (Spleen uptake); 1.4 ± 0.2 %ID/g in data set [1] (Tibia uptake). In the data set with RM-1 tumor allografts, this molecule had a Tumor uptake of 6.9 ± 1.9 %ID/g.

The record behind these values is paper PMC9160799, “PET Imaging of Acidic Tumor Environment With ^89Zr-labeled pHLIP Probes” (Frontiers in Oncology, 2022).
